# Numbering of substitutions follows the chain as printed.
# T1: recombinant human MCP-2 (human, UniProt P80075 24-99)
# T1 construct: also called rhMCP-2
# T1 sequence (looked up): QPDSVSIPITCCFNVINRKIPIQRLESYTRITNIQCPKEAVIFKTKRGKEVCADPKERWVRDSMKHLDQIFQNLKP
# T2: human GRO/MGSA (human, UniProt P09341 35-107)
# T2 construct: also called hGRO/MGSA; GRO-alpha
# T2 sequence (looked up): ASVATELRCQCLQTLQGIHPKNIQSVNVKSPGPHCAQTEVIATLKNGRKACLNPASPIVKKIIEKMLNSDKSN
# T3: human MIP-1-alpha (human, UniProt P10147 24-92, limits assumed)
# T3 construct: also called hMIP-1-alpha
# T3 sequence (looked up): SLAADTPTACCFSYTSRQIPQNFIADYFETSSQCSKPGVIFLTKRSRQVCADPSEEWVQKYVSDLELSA
# T4: human RANTES (human, UniProt P13501 24-91)
# T4 construct: also called hRANTES
# T4 sequence (looked up): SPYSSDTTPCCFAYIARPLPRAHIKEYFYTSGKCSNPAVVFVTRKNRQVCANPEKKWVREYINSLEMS
# B1: anti-MCP-1 mAb 3.10.1 (antibody, V domains shown)
# VH: QVQLVQSGAEVKKPGASVKVSCKVSGYTLTELSMHWVRQAPGKGLEWMGGFDPEDGETIYAQKFQGRVMMTEDTSTDTAFMDLSSLRSEDTAVYYCATDDMLTPHYLYFGMDVWGQGTTVTVSS
# VL: DIQMTQSPSSLSASVGDRVTITCRASQGIRNDLGWYQQKPGKAPKRLIYATSSLQSGVPSRFSGSGSGTEFTLTISSLQPEDFATYYCLQHNTYPFTFGPGTKVDIKR
# B2: anti-MCP-1 mAb 1.18.1 (antibody, human IgG2, kappa, V domains shown)
# VH: QVQLVQSGAEVKKPGASVKVSCKVSGYTLTELSMHWVRQAPGKGLEWMGGFDPEDGETIYAQKFQGRVTMTEDTSTDTVYMELSSLRSEDTAMYYCATREFWTGYFDHWGQGTLVTVSS
# VL: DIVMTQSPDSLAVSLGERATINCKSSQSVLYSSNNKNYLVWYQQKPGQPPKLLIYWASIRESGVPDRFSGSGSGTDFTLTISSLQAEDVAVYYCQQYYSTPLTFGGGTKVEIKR
# B3: anti-MCP-1 mAb 4.6.1 (antibody, V domains shown)
# VH: B2 VH with V79A, M93V, R99D, E100D, T103S, H108Y
# VL: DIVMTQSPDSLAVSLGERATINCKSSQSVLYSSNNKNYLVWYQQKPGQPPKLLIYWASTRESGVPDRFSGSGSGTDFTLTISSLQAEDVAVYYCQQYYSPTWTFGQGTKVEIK
# B4: anti-MCP-1 mAb 1.2.1 (antibody, V domains shown)
# VH: B2 VH with L29F, I59S, Q65R, V79A, Y80H, M93V, R99N, E100D, T103S, H108Y
# VL: DIQMTQSPSSVSASVGDRVTITCRASQGIDIYLAWYQQKPGKAPKLLINAASSLQNGVPSRFGGSGSGTDFTLTISGLQPEDFATYYCQLTYFFPWTFGQGTKVEIKR
# B5: anti-MCP-1 mAb 3.16.1 (antibody, V domains shown)
# VH: B2 VH with E31D, T76S, V79A, M93V, R99H, T103S, H108Y
# VL: DIVMTQSPDSLAVSLGERATINCKSSQSVLFSSNNKSYLTWYQQKPGQPPKLLIFWASIRESGVPDRISGSGSGTDLTLTISSLQAEDAAVYYCQQYYSSPWTFGQGTKVEIKR
# B6: anti-MCP-1 mAb 4.5.1 (antibody, V domains shown)
# VH: B2 VH with V79A, M93V, R99D, E100D, T103S, H108Y
# VL: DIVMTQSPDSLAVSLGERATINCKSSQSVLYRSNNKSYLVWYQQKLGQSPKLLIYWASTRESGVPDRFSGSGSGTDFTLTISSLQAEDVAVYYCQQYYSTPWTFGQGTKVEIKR
# B7: anti-MCP-1 mAb 3.4.1 (antibody, V domains shown)
# VH: B2 VH with I59M, V79A, M93V, R99D, E100D, T103S, H108Y
# VL: DIVMTQSPDSLAVSLDERATINCKSSQSVLYSPNQKNYLVWYQQKPGQPPKLLLYWASIRESGVPDRFSGSGSGTDFTLTISSLQAEDVAVYYCQQSYFTPWTFGQGTKVEIKR
# B8: anti-MCP-1 mAb 1.14.1 (antibody, V domains shown)
# VH: QVQAEQSGPGLVKPSQTLSLTCAISGDSVSSYSAAWNWIRQSPSRGLEWLGRTYYRSKWYSDHAVSVRSRITIYPDTSKNQFSLQLNSVTPEDTAVYYCARDRISGTYVGMDVWGQGTTVTVSS
# VL: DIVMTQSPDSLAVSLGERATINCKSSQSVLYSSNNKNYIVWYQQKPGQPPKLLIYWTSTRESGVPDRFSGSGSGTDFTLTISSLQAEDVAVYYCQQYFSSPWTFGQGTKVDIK
# B9: anti-MCP-1 mAb 3.15.1 (antibody, human IgG4, kappa, V domains shown)
# VH: QVQLVQSGAEVKKPGASVQVSCKVSGDTLTELSMHWVRQAPGKGLEWMGGFDPEDGETIYARKFQGRVTMTEDTSTDTVYMELSSLRSEDTAVYFCATDSRGYSGYFDNWGQGTLVTVSS
# VL: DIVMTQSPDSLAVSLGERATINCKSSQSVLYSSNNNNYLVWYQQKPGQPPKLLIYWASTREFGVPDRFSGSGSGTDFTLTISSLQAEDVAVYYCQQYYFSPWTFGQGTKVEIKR
# B10: anti-MCP-1 mAb 3.14.1 (antibody, V domains shown)
# VH: EQSGPGLVKPSQTLSLTCAISGDSVSSNSAAWNWIRQSPSRGLEWLGRTYYRSKWYSDHAVSVRSRITIYPDTSKNQFSLQLNSVTPEDTAVYYCARDRISGTYVGMDVWGQGTTVTVSS
# VL: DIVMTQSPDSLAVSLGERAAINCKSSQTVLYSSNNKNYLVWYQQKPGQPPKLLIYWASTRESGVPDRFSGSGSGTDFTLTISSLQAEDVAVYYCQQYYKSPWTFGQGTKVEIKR
# Molecular target: T5, human monocyte chemo-attractant protein-1 (MCP-1) (human, UniProt P13500 24-99)
# T5 construct: 76-residue recombinant protein from E. coli, bought (PeproTech); also called hMCP-1(MCAF); human MCP-1
# Test: ELISA, coated antigen
# Method: (§1) Determining cross-reactivity of anti-MCP-1 antibodies with other chemokines. ELISA plates (Fisher Cat. No. 12-565-136) were coated with 50 μl/well of MCP-1, MCP-2, MCP-3, MCP-4, RANTES, GRO-alpha, MIP-1 alpha, eotaxin, rat MCP-1 and mouse JE (2 μg/ml) in coating buffer (0.1 M carbonate buffer, pH 9.6, NaHCO₃ 8.4 g/L, then incubated at 4° C. overnight. After incubation, the plates were washed with washing buffer (0.05% Tween 20 in PBS) three times. 200 μL/well blocking buffer (0.5% BSA, 0.1% Tween 20, 0.01% Thimerosal in 1×PBS) were added and the plates incubated at room temperature for 1 hour. After incubation, the plates were washed with washing buffer three times. 50 μL/well of hybridoma supernatants, and positive and negative controls (positive control was anti-MCP-1 antibody purchased from R&D Sciences, and negative control was an antibody to Keyhole Limpet Hemocyanin produced at Abgenix) were added and the plates incubated at room temperature for 2 hours. After incubation, the plates were washed three times with washing buffer. […] After incubation, the plates were washed three times with washing buffer and 100 μL/well of TMB (BioFX Lab. Cat. #TMSK-0 100-01) was added and the plates allowed to develop for about 10 minutes.
# T5 sequence (P13500 24-99): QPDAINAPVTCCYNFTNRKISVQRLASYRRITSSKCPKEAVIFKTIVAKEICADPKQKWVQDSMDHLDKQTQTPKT
row,Binder,ELISA OD [OD450]
1,B1,0.71
2,B2,1.23
3,B3,0.686
4,B4,1.16
5,B5,0.633
6,B6,0.957
7,B7,1.15
8,B8,1.13
9,B9,0.948
10,B10,0.549

# Molecular target: T6, recombinant mouse JE/MCP-1 (mouse, UniProt P10148 24-148)
# T6 construct: also called rmJE/MCP-1
# Test: ELISA, coated antigen
# Method: as §1
# T6 sequence (P10148 24-148 limits assumed): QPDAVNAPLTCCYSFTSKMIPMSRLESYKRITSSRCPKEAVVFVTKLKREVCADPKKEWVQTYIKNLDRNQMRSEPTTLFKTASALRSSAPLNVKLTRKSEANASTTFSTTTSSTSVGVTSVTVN
row,Binder,ELISA OD [OD450]
1,B1,0.054
2,B2,0.044
3,B3,0.049
4,B4,0.041
5,B5,0.042
6,B6,0.049
7,B7,0.044
8,B8,0.042
9,B9,0.041
10,B10,0.044

# Molecular target: rat MCP-1 (rat, UniProt P14844 24-148)
# Test: ELISA, coated antigen
# Method: as §1
# Chain of rat MCP-1 (P14844 24-148 limits assumed): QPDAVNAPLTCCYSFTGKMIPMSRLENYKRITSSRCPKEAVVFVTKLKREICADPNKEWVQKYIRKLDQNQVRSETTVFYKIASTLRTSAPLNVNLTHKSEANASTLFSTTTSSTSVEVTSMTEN
row,Binder,ELISA OD [OD450]
1,B1,0.045
2,B2,0.058
3,B3,0.05
4,B4,0.044
5,B5,0.046
6,B6,0.055
7,B7,0.053
8,B8,0.062
9,B9,0.05
10,B10,0.046

# Molecular target: T1, recombinant human MCP-2
# Test: ELISA, coated antigen
# Method: as §1
row,Binder,ELISA OD [OD450]
1,B1,0.845
2,B2,0.04
3,B3,0.047
4,B4,0.056
5,B5,0.049
6,B6,0.042
7,B7,0.042
8,B8,0.042
9,B9,0.043
10,B10,0.045

# Molecular target: T7, recombinant human MCP-3 (human, UniProt P80098 24-99)
# T7 construct: also called rhMCP-3
# Test: ELISA, coated antigen
# Method: as §1
# T7 sequence (P80098 24-99 limits assumed): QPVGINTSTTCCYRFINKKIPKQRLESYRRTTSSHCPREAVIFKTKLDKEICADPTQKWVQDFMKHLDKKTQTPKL
row,Binder,ELISA OD [OD450]
1,B1,0.167
2,B2,0.045
3,B3,0.05
4,B4,0.048
5,B5,0.043
6,B6,0.046
7,B7,0.05
8,B8,0.046
9,B9,0.046
10,B10,0.05

# Molecular target: T8, recombinant human MCP-4 (human, UniProt Q99616 24-98, limits assumed)
# T8 construct: also called rhMCP-4
# Test: ELISA, coated antigen
# Method: as §1
# T8 sequence (Q99616 24-98 limits assumed): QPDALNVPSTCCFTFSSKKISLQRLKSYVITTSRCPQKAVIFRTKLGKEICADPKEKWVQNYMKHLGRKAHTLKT
row,Binder,ELISA OD [OD450]
1,B1,0.042
2,B2,0.045
3,B3,0.047
4,B4,0.055
5,B5,0.043
6,B6,0.046
7,B7,0.047
8,B8,0.044
9,B9,0.051
10,B10,0.045

# Molecular target: T2, human GRO/MGSA
# Test: ELISA, coated antigen
# Method: as §1
row,Binder,ELISA OD [OD450]
1,B1,0.042
2,B2,0.049
3,B3,0.046
4,B4,0.044
5,B5,0.043
6,B6,0.045
7,B7,0.065
8,B8,0.046
9,B9,0.044
10,B10,0.046

# Molecular target: T3, human MIP-1-alpha
# Test: ELISA, coated antigen
# Method: as §1
row,Binder,ELISA OD [OD450]
1,B1,0.043
2,B2,0.043
3,B3,0.055
4,B4,0.04
5,B5,0.043
6,B6,0.046
7,B7,0.055
8,B8,0.046
9,B9,0.045
10,B10,0.046

# Molecular target: T4, human RANTES
# Test: ELISA, coated antigen
# Method: as §1
row,Binder,ELISA OD [OD450]
1,B1,0.04
2,B2,0.04
3,B3,0.053
4,B4,0.04
5,B5,0.042
6,B6,0.049
7,B7,0.046
8,B8,0.046
9,B9,0.049
10,B10,0.045

# Molecular target: T9, human eotaxin (human, UniProt P51671 24-97)
# T9 construct: also called hEotaxin
# Test: ELISA, coated antigen
# Method: as §1
# T9 sequence (P51671 24-97 limits assumed): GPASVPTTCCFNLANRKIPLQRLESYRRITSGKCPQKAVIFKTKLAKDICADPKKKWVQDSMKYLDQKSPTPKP
row,Binder,ELISA OD [OD450]
1,B1,0.306
2,B2,0.043
3,B3,0.049
4,B4,0.044
5,B5,0.043
6,B6,0.041
7,B7,0.048
8,B8,0.042
9,B9,0.045
10,B10,0.043

# Molecular target: T5, human monocyte chemo-attractant …
# Test: cell-based or functional assay
Binder,IC50 Ca++ Flux [µg/mL],IC50 Chemotaxis [µg/mL]
B1,0.3,0.25
B2,0.18,0.29
B3,0.31,0.4
B4,0.18,0.24
B5,0.16,0.4
B6,0.27,0.75
B7,0.24,0.51
B8,0.41,0.58
B9,0.12,0.89
B10,1.3,1.4

# Molecular target: T5, human monocyte chemo-attractant …
# Test: ELISA, hybridoma supernatant on coated MCP-1
# Method: Selection of candidate antibodies for ELISA. After 14 days of culture, hybridoma supernatants were screened for MCP-1-specific monoclonal antibodies. The ELISA plates (Fisher, Cat. No. 12-565-136) were coated with 50 μl/well of MCP-1 (2 μg/mL) in Coating Buffer (0.1 M Carbonate Buffer, pH 9.6, NaHCO₃8.4 g/L), then incubated at 4° C. overnight. After incubation, the plates were washed with Washing Buffer (0.05% Tween 20 in PBS) three times. 200 μl/well Blocking Buffer (0.5% BSA, 0.1% Tween 20, 0.01% Thimerosal in 1× PBS) were added and the plates incubated at room temperature for 1 hour. After incubation, the plates were washed with Washing Buffer three times. 50 μL/well of hybridoma supernatants, and positive and negative controls were added and the plates incubated at room temperature for 2 hours.
# The positive control used throughout was XMG2 MCP-1 Group 1, footpad N160-7 and the negative control was XMG2 KLH Group 1, footpad L627-6. After incubation, the plates were washed three times with Washing Buffer. […] In the secondary screen, three sets of samples (positives in first screening) were screened, one set for hIgG detection, one set for hKappa detection, and one set for hlambda detection. After incubation, the plates were washed three times with Washing Buffer. 100 μL/well of TMB (BioFX Lab. Cat. #TMSK-0100-01) were added and the plates allowed to develop for about 10 minutes (until negative control wells barely started to show color), then 50 μL/well stop solution (TMB Stop Solution (BioFX Lab. Cat. #STPR-0100-01) were added and the plates read on an ELISA plate reader at wavelength 450 nm. The OD readings from the positive wells are presented in Table 9.
row,Binder,ELISA OD-MCP-1 [OD450]
1,B1,3.63
2,B2,0.998
3,B3,3.51
4,B4,3.47
5,B5,3.92
6,B6,3.38
7,B7,3.86
8,B8,2.06
9,B9,4
10,B10,4

# — patent publication US20050058639A1 (AstraZeneca / MedImmune, published 2005)
